The target of one data set is T1, SSBP1 WT (mtSSB) (human, UniProt Q04837 17-148).
T1 sequence: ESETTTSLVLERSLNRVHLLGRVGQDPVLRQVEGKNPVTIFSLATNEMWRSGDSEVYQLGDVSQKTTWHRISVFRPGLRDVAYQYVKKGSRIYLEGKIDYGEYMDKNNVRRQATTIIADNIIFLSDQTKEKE
Put plainly: fluorescence anisotropy; 5 mM MgCl2; apparent Kd, protein as tetramer; 20 nM DNA; quadratic fit; 30 mM HEPES-KOH pH 7.6, 50 mM KCl, 2 mM DTT, 5 mM MgCl2, 20 nM FAM-oligonucleotide, 37 C. Conditions: protein: recombinant; chain copies: 4; label: 3' FAM (fluorescein); single strand.

The next data set has as its target T2, SSBP1 p.E27K (human, UniProt Q04837 17-148, E27K).
T2 sequence: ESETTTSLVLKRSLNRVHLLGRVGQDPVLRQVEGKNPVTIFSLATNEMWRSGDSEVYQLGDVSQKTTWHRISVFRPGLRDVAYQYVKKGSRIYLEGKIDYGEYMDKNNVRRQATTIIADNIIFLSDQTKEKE
Put plainly: fluorescence anisotropy; 5 mM MgCl2; apparent Kd, protein as tetramer; 20 nM DNA; quadratic fit; plateau anisotropy about 1.4-fold higher than WT; 30 mM HEPES-KOH pH 7.6, 50 mM KCl, 2 mM DTT, 5 mM MgCl2, 20 nM FAM-oligonucleotide, 37 C. Conditions: protein: recombinant; chain copies: 4; label: 3' FAM (fluorescein); single strand.

Data set [1] concerns the molecule itself. Put plainly: SEC; Superdex 200 10/300 GL, AKTA FPLC, Storage Buffer (30 mM HEPES-KOH pH 7.6, 250 mM KCl, 0.25 mM EDTA, 2 mM dithiothreitol, 10% glycerol); purified recombinant protein; single peak read as tetramer.

With AATGCTATCACTATTCGTAGACTTGACCACACCTTGTCAGCTCACGCTCC (ssDNA) [FAM-labeled 50 nt ssDNA], the Kd with SSBP1 WT (mtSSB) worked out at 2.3 nM; with SSBP1 p.E27K it was 9.3 nM.

B1: wild-type human mitochondrial single-stranded DNA-binding protein (SSBP1) (natural protein, UniProt Q04837 17-148, looked up)
chain: ESETTTSLVLERSLNRVHLLGRVGQDPVLRQVEGKNPVTIFSLATNEMWRSGDSEVYQLGDVSQKTTWHRISVFRPGLRDVAYQYVKKGSRIYLEGKIDYGEYMDKNNVRRQATTIIADNIIFLSDQTKEKE
notes: No tag is mentioned; also called WT SSBP1; HmtSSB; source: E. coli BL21(DE3), purified (Affi-Gel Blue, MonoQ, Superdex 200)
For the molecule B1, in data set [1], the “stoichiometry N” value amounted to 4.

B2: p.E27K human mitochondrial single-stranded DNA-binding protein (SSBP1) (natural protein, UniProt Q04837 17-148, looked up)
chain: ESETTTSLVLKRSLNRVHLLGRVGQDPVLRQVEGKNPVTIFSLATNEMWRSGDSEVYQLGDVSQKTTWHRISVFRPGLRDVAYQYVKKGSRIYLEGKIDYGEYMDKNNVRRQATTIIADNIIFLSDQTKEKE
notes: Homotetramer of four mutant chains; The variant was found de novo in a patient; No tag is mentioned; also called p.E27K SSBP1; E27K SSBP1; source: E. coli BL21(DE3), purified (Affi-Gel Blue, MonoQ, Superdex 200)
As to B2, in data set [1], the “stoichiometry N” value turned out to be 4.

Values taken from PMC6719858, “Mitochondrial single-stranded DNA binding protein novel de novo SSBP1 mutation in a child with single large-scale mtDNA deletion (SLSMD) clinically manifesting as Pearson, Kearns-Sayre, and Leigh syndromes” (PLoS ONE, 2019).
